Measurements taken from US20250282861A1 (SYDDANSK UNIVERSITET, published 2025).

Target: T1, recombinant human MFAP4 (microfibrillar-associated protein 4) (human, UniProt P55083 22-255)
T1 construct: It was coated on plates or filters at 10 µg/ml and also served as the ELISA standard; also called rhMFAP4; hrMFAP4
T1 sequence (looked up): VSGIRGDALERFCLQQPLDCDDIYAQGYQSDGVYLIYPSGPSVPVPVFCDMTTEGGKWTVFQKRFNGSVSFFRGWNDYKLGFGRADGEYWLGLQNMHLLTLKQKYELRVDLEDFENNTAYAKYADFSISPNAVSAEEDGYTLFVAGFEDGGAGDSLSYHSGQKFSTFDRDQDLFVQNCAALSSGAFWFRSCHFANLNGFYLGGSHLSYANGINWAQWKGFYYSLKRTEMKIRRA
Assay: sandwich ELISA, capture antibody coated at 1 µg/ml; rhMFAP4 as standard
Description: The next day, plates were washed and blocked with PBS/tween for 1h at room temperature. […] Then, plates were successively incubated with horseradish peroxidase (HRP)-conjugated streptavidin (1:2000, diluted in PBS/tween, Invitrogen) for half an hour at room temperature, O-phenylenediamine dihydrochloride (OPD) (0.4 mg/ml, H1009, Sigma) dissolved in HRP with 0.03% H₂O₂, for 15 min at room temperature in the dark. Finally, 100 μl/well of 1M H₂SO₄ was added to stop the color development. Optical density was read at 492 nm wavelength with 620 nm as reference using ELISA microplate reader.

B1: HG Hyb 7-5 murine monoclonal antibody raised against human recombinant MFAP4 (antibody, mouse IgG1, V domains shown)
VH: EVQLQQSGPELVKPGASVKLSCKTSGYTFTSYDMNWVKQRPGQGLEWIGWIFPRDGSTKFNEKFKGKATLTVDTSSTTAYMELHSLTSEDSAVYFCARAEIFFDYGFDYWGQGTTLTVSS
VL: DIVMTQSTALMAASPGEKVTITCSVSSSISSSNLHWYQQKSETSPKSWIYGTSNLASGVPGRFSGSGSGTSYSLTISSVEAEDAATYYCQQWSSYPLTFGGGTKLEIK
notes: Used as the capture antibody in the ELISA for human MFAP4
binding result: binds
